In the supplement of paper PMC11908140:

B1: library; numbered along this chain (parent)
chain: MRKPRAAVGSGHRKQAASQEGRQKHAKNNSQAKPSACDGLARQPEEVVLQASVSSYHLFRDVAEVTAFRGSLLSWYDQEKRDLPWRRRAEDEMDLDRRAYAVWVSEVMLQQTQVATVINYYTGWMQKWPTLQDLASASLEEVNQLWAGLGYYSRGRRLQEGARKVVEELGGHMPRTAETLQQLLPGVGRYTAGAIASIAFGQATGVVDGNVARVLCRVRAIGADPSSTLVSQQLWGLAQQLVDPARPGDFNQAAMELGATVCTPQRPLCSQCPVESLCRARQRVEQEQLLASGSLSGSPDVEECAPNTGQCHLCLPPSEPWDQTLGVVNFPRKASRKPPREESSATCVLEQPGALGAQILLVQRPNSGLLAGLWEFPSVTWEPSEQLQRKALLQELQRWAGPLPATHLRHLGEVVHTFSHIKLTYQVYGLALEGQTPVTTVPPGARWLTQEEFHTAAVSTAMKKVFRVYQGQQPGTCMGSKRSQVSSPCSRKKPRMGQQVLDNFFRSHISTDAHSLNSAAQ

Variants of: B1
Assay: 8OG:A repair function score (normalized; synonymous = 0, nonsense = -1) (normalized log-likelihood score); higher = more repair activity (WT-like)
Details: with 8OG:A DNA repair reporter (GFP) in HEK-293 MUTYH KO cells
In short: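 After 72 h, viable mCherry+ cells were split into GFP+ (repair) and GFP− bins in three replicates per tile. These cells were MUTYH knockout HEK-293 cells holding lentiviral MUTYH cDNA NNN codon-scan libraries, kept in 10 pg/ml doxycycline and co-transfected with mCherry plus an 8OG:A GFP repair reporter. Sequencing of tile amplicons gave per-tile Rosace fitness scores, normalized into a repair function score anchored on synonymous and nonsense distributions. Synonymous medians were fixed at 0, nonsense at -1, and variants under 300 counts per million at the start were removed.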
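Also: cells sorted at 72 h after reporter transfection.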

8OG:A repair function score, by site and new letter:
A334: R 0.0363, C -0.0888, Q -0.103, D -0.242, G -0.0343, T -0.0373, L -0.0917, F -0.0391, I -0.198, P -0.147, N 0.0217, V 0.00558, S 0.0289, E -0.0264, Y 0.0534, W -0.28, K 0.00736, H 0.0495
R336: I -0.113, F -0.164, N -0.101, G -0.112, D -0.271, V -0.148, C -0.0115, A -0.0267, E -0.151, T -0.118, M -0.117, Y -0.18, W -0.0779, S -0.097, L -0.22, K -0.0529, H -0.173, P -0.136, Q -0.218
S344: T 0.00415, H 0.0531, C 0.0475, P -0.301, I -0.0592, D -0.196, L 0.00107, N 0.0332, F -0.0252, A 0.0466, V -0.00413, Q 0.019, K 0.0408, R -0.0609, M 0.0335, Y 0.0271, E -0.0813, W -0.0913
A345: G -0.243, Y -0.126, E -0.567, T -0.111, S -0.148, M -0.102, N -0.356, V 0.0157, D -0.542, F -0.165, K -0.499, Q -0.264, H -0.107, I 0.0369, L -0.04, P -0.334, R -0.408, W -0.174, C 0.0391
P331: K -0.332, I -0.596, E -0.568, W -0.233, H -0.439, F -0.357, L -0.609, D -0.501, A -0.0508, V -0.568, S -0.197, Q -0.608, C -0.105, R -0.474, M -0.254, G -0.0671, Y -0.276, T -0.351, N -0.316
S343: P -0.144, W -0.0714, I -0.0485, Q -0.144, A 0.0302, T -0.0419, V 0.0196, G -0.00518, D 0.0576, F -0.0296, Y 0.129, E -0.015, R 0.0819, H 0.00619, K 0.133, L -0.124, N -0.0331, C 0.00733, M 0.0865
F330: R -0.958, N -1.18, Q -0.638, S -0.765, H -0.37, M -0.174, I -0.18, T -0.478, V -0.145, K -0.928, Y -0.0696, P -1.04, W -0.017, L -0.149
S335: K 0.029, D -0.0695, W -0.0943, F -0.0626, I -0.000462, Y -0.0347, E -0.0481, Q -0.044, G -0.02, T 0.005, M -0.0531, V -0.0166, L -0.0705, H 0.0625, P -0.028, C -0.0251, A 0.0331, R -0.0718, N 0.0783
C347: N -1.21, K -1.08, V -0.045, L -0.18, R -1.15, S -0.457, W -1.21, H -1.55, A -0.0315, D -1.26, T -0.206, G -0.229, M -0.15, I -0.0428, P -1.08, E -1.34, Q -1.57, F -0.387, Y -0.846
E341: G -0.208, I -0.0537, K -0.0881, H 0.0806, C -0.0275, T 0.0246, Y -0.00525, Q -0.0264, F -0.0534, R 0.0117, N -0.0613, A 0.0808, P -0.0298, S -0.0269, V -0.0649, L -0.00796, W 0.0472, D -0.0128
K333: I -0.0317, S -0.141, N -0.205, V -0.0946, D -0.903, A 0.0254, H -0.0128, T -0.137, L -0.227, G -0.131, M -0.0664, E -1.01, R 0.0284, Q -0.166, C 0.053, W -0.0431, F -0.221, P 0.038, Y -0.0195
E342: R 0.0113, K 0.0199, D 0.0832, W -0.279, N 0.0275, F -0.0595, T -0.0198, H 0.0491, S -0.0341, P -0.298, M 0.0246, Q 0.0267, G -0.00875, C 0.0508, Y -0.0601, L 0.0472, A -0.0199, V -0.0483, I -0.00523
P338: H -0.0311, L -0.061, C -0.0613, K 0.0337, I -0.0572, Q -0.00645, G -0.0299, R 0.00053, V -0.0391, T -0.0578, S -0.0346, Y -0.0269, E -0.133, D -0.0378, A -0.066, F -0.101, W 0.053, M 0.0756, N -0.066
K337: M -0.112, V -0.116, A -0.0726, T -0.131, I -0.106, F -0.221, E -0.0878, C -0.225, Q -0.0917, G -0.0801, Y -0.118, H -0.0482, S -0.109, L -0.136, D -0.151, R 0.000179, N -0.132, W -0.0779, P 0.0544
R340: F -0.491, K -0.0186, I -0.119, T -0.0938, Y -0.205, C -0.18, N -0.24, P -0.328, D -0.385, W -0.144, E -0.133, M -0.107, S -0.153, V -0.304, A -0.0533, Q -0.171, H -0.253, G -0.129, L -0.211
P339: V -0.0967, K -0.0247, I -0.0749, E -0.374, R -0.0864, L -0.113, F -0.187, D -0.41, C -0.157, S -0.0594, H 0.0544, N -0.17, T -0.0529, Y -0.144, M -0.0671, A -0.12, W -0.126, G -0.00599, Q -0.0157
T346: S -0.168, G -0.335, V 0.0305, P -0.585, R -0.56, L -0.0228, M -0.125, I 0.0144, H -0.35, E -1.03, W -0.751, N -0.262, A -0.0694, Q -0.787, D -0.917, K -0.886, F -0.247, C 0.0316, Y -0.168
R332: Q -0.0904, A -0.0476, V -0.216, P -0.191, I -0.256, H -0.163, M -0.332, N -0.315, K -0.206, L -0.109, T -0.246, G -0.193, E -0.449, Y -0.166, W 0.0485, S -0.0346, D -0.574, F -0.0556, C -0.154
